According to PMC7959569:

Target: Med25 AcID, Med25(394-543)-His6 (UniProt Q71SY5)
Assay: stopped-flow fluorescence transient kinetics

Med25 AcID, Med25(394-543)-His6, sequence (Q71SY5 394-543): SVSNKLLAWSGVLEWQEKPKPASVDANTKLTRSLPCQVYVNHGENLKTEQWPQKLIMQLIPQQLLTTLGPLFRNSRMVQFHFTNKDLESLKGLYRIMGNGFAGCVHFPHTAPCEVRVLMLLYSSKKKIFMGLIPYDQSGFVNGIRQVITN

| fold gain in affinity against the parent TAD | Substance |
| --- | --- |
| 1.7 fold | ETV1^∆Nt TAD with 4-DMN on the N terminus (from UniProt P50549 42-477) (peptide) |
| 1.7 fold | ETV4^∆Nt TAD with 4-DMN on the N terminus (from UniProt P43268 49-484) (peptide) |
